Experimental findings from US20080138847A1, “Bcl-2 family member and BH-3 only proteins for use in development of peptidomimetics” (priority 2004, published 2008) are described below.

Test [1] has as its system ced-1 (e1735); egl-1 (n1084 n3082) animals. Kind of test: in vivo cell killing: cell corpses in four-fold transgenic embryos after heat-shock expression of EGL-1 fragments. Also on record: species or system C. elegans. Conditions: anterior head region of four-fold transgenic embryos; heat-shock promoter expression. How it is done:
In this example, the ability of EGL-1 mutants to disrupt the CED-4/CED-9 complex was tested. […] To examine this scenario, constructs were injected into ced-1 (e1735); egl-1 (n1084 n3082) animals that direct expression of various EGL-1 fragments under the control of the C. elegans heat-shock promoters. Cell corpses were scored in the anterior head region of four-fold transgenic embryos after the heat-shock treatment.

Test [2] deals with T1, CED-4/CED-9 complex (Caenorhabditis elegans, UniProt P41958).
T1 sequence (P41958 1-251 limits assumed): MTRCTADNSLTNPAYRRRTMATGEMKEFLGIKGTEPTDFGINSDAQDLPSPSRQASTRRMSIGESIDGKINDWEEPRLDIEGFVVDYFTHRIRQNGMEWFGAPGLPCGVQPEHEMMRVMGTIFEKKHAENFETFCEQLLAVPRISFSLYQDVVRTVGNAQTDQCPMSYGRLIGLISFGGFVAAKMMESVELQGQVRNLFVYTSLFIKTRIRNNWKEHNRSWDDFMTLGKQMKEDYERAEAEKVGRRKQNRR
Kind of test: CED-4 displacement assay (pre-assembled CED-4/CED-9 complex on glutathione resin challenged with EGL-1 fragments). The test is classed as biochemical, C. elegans. Particulars: in vitro, remaining complex visualized on SDS polyacrylamide gel. From the text:
EGL-1 induces apoptosis by displacing CED-4 from the CED-4/CED-9 complex. To recapitulate this finding in vitro, a CED-4 displacement assay was designed in which pre-assembled CED-4/CED-9 complex was immobilized on glutathione resin and was then challenged with various EGL-1 fragments. After extensive washing, the remaining CED-4/CED-9 complex was eluted from the resin and visualized on SDS polyacrylamide gel. […] In contrast, most missense mutations at the EGL-1/CED-9 interface weakened the ability of EGL-1 to displace CED-4 from the CED-4/CED-9 complex. […] The in vitro studies are in complete agreement with the structural observation.

The target in test [3] is T2, CED-9 protein (residues 1-251) (Caenorhabditis elegans, UniProt P41958).
T2 construct: made in house
T2 sequence (P41958 1-251): T1 sequence (P41958 1-251 limits assumed)
Put plainly: GST-EGL-1 fragment/mutant interaction with CED-9 (GST-mediated pull-down assay). Particulars: GST-EGL-1 fragments or mutants, in vitro. Format: binding, C. elegans. How it is done:
This example describes the characterization of EGL-1/CED-9 interactions. To determine the mechanism of CED-9 recognition by EGL-1, the EGL-1/CED-9 interaction was characterized. Various fragments of the GST-EGL-1 protein were evaluated for their abilities to interact with the CED-9 protein (residues 1-251).
To further characterize EGL-1/CED-9 interactions, a number of missense mutations were introduced into EGL-1 and the ability of the resulting EGL-1 mutants to interact with CED-9 was determined.
This example describes the biochemical and functional analysis of EGL-1/CED-9 interactions. To corroborate the structural analysis, mutations on the interface residues of EGL-1 were examined for their potential to weaken or disrupt its binding to CED-9. Various mutant EGL-1 fragments were purified as fusion proteins with glutathione S-transferase (GST) and their interactions with CED-9 were investigated using a GST-mediated pull-down assay.

For test [4], the target named is T3, CED-4 (Caenorhabditis elegans, UniProt P30429).
T3 sequence (P30429 1-549): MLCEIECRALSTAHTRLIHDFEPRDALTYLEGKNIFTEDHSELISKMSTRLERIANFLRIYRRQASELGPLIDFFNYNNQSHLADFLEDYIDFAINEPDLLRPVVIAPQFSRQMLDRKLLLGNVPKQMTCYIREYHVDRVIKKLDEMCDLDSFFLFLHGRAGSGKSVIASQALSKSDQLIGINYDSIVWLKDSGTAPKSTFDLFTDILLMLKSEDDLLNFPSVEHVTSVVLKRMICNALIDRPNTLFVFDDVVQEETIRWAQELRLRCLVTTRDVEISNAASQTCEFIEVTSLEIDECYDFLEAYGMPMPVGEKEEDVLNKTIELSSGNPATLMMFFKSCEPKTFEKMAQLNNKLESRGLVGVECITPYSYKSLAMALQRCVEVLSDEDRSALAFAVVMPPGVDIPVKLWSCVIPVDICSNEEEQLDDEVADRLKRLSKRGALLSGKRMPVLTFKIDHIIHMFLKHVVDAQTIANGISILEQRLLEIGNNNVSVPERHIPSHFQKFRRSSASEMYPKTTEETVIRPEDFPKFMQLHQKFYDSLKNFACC
Kind of test: interaction of CED-9 surface mutants with CED-4. Format: binding, C. elegans. Particulars: purified CED-9 mutant proteins. As to the method:
This example describes the biochemical analysis of CED-4/CED-9 interactions. To further define the molecular mechanisms by which EGL-1 induces the release of CED-4 from CED-9-mediated sequestration, the identify of surface residues in CED-9 that are important for binding to CED-4 was analyzed. It was hypothesized that for molecular recognition to occur, at least some of the CED-9 residues that are important for binding to CED-4 must be solvent-exposed prior to binding. Therefore, the structure of CED-9 in isolation was examined and a total of 44 amino acids were identified, each with at least 30% of its surface area exposed to solvent. These 44 amino acids were grouped based on primary sequences and 20 CED-9 mutant clones were generated, each containing 1-5 missense mutations that together covering all 44 solvent-exposed residues. All 20 CED-9 proteins were cloned into an expression vector and over-expressed in E. coli and purified to homogeneity.
Next, the abilities of these CED-9 mutants to interact with CED-4 was examined. […] This surface patch may constitute the primary CED-4-binding motif. None of the other 16 mutations, which cover the entirety of the CED-9 surface, affected the CED-4/CED-9.

Where [5] appears, read: listed as EGL-1 double mutant (G55E/F65A).

Numbering of substitutions follows the chain as printed. In names and notes the source's numbering stands. Entries after “also recorded” stand apart in the source; their conditions may differ. Where no end group is shown, it is not given here.

“C-terminal half of EGL-1 (amino acids 45-87): C-terminal half of EGL-1, residues 45-87 (SEISSIGYEIGSKLAAMCDDFDAQMMSYSAHASDRSLFHRLLD)”: the “cell killing (cell corpses induced)” value in test [1] is “necessary and sufficient”. Moreover, the “ability to displace CED-4 from the CED-4/CED-9 complex” value (shortened to “ability”) in test [2] is recorded as “completely displaced CED-4”. Moreover, the “interaction with (binding to) CED-9” value in test [3] was “necessary and sufficient; also recorded: formed a stable complex”.
Take “C-terminal half of EGL-1 (residues 45-91): C-terminal half of EGL-1, residues 45-91 (EDSSQFADDSGFFDDSEISSIGYEIGSKLAAMCDDFDAQMMSYSAHA; UniProt O61667 45-91, looked up, fragment)”: the “interaction with (binding to) CED-9” value in test [3] is given as “formed a stable complex”.
In the case of “EGL-1 C-terminal fragment (residues 46-87): EGL-1 C-terminal fragment residues 46-87 expressed in vivo (DSSQFADDSGFFDDSEISSIGYEIGSKLAAMCDDFDAQMMSY; UniProt O61667 46-87, looked up, fragment)”, in test [1], the “cell killing (cell corpses induced)” value is given as “about half the number of cell corpses as the full-length EGL-1”.
On to “L58A: EGL-1 mutant, Leu58 substituted by Ala (SEISSIGYEIGSKAAAMCDDFDAQMMSYSAHASDRSLFHRLLD; not fully specified)”, for which the “ability” value in test [2] is listed as “significantly reduced ability”. Also, in test [3], the “interaction with (binding to) CED-9” value was “did not significantly affect its interaction with CED-9; also recorded: retaining their ability to bind to CED-9”.
For the molecule “N-terminal half (residues 1-45) of EGL-1: N-terminal half of EGL-1, residues 1-45 (MSNVFDVQSSVFYNEKNMFYSSSQDFSSCEDSSQFADDSGFFDDS; not fully specified)”, in test [1], the “cell killing (cell corpses induced)” value is given as “did not induce cell death”. The “interaction with (binding to) CED-9” value in test [3] is given as “did not show detectable binding”.
In the case of “mut2: EGL-1 double mutant G55E/F65A (SEISSIGYEIESKLAAMCDDADAQMMSYSAHASDRSLFHRLLD; not fully specified)”, the “cell killing (cell corpses induced)” value in test [1] is given as “induced no cell killing”. For the same molecule, the “ability” value in test [2] is “completely failed to disrupt the CED-4/CED-9 complex”; in test [2] (setting [5]), “failed to bind to CED-9 or to displace CED-4”. In addition, the “interaction with (binding to) CED-9” value in test [3] is given as “failed to bind to CED-9”; in test [3] (setting [5]), “failed to bind to CED-9”; in test [3] (listed as G55E and F65A) it was “completely abolished its interaction with CED-9”.
Regarding “mut4: EGL-1 quadruple mutant G55E/L58A/F65A/M69A (SEISSIGYEIESKAAAMCDDADAQAMSYSAHASDRSLFHRLLD; also: fused to a dimerising Fc or GST (left off))”, the “ability” value in test [2] was “completely failed to disrupt the CED-4/CED-9 complex”. In addition, the “interaction with (binding to) CED-9” value in test [3] is given as “failed to bind to CED-9”.

B1: G55E: EGL-1 mutant, Gly55 substituted by glutamate (protein, UniProt O61667 1-106, looked up, variant G55E)
Programmed cell death …: MLMLTFASTSSDLLPMSNVFDVQSSVFYNEKNMFYSSSQDFSSCEDSSQFADDSEFFDDSEISSIGYEIGSKLAAMCDDFDAQMMSYSAHASDRSLFHRLLDFFAF
For B1, in test [1], the “cell killing (cell corpses induced)” value is recorded as “significantly lower level than that of the wild-type EGL-1 protein”. Moreover, the figures for the “ability” value in test [2] and in test [2] (listed as EGL-1 (G55E)) were “significantly reduced ability” and “decreased ability to disrupt the CED-4/CED-9 complex”, respectively. Moreover, the figures for the “interaction with (binding to) CED-9” value in test [3] and in test [3] (listed as EGL-1 (G55E)) were “not sufficient to abolish interaction with CED-9; also recorded: retaining their ability to bind to CED-9” and “retained its ability to interact with CED-9”, respectively.

B2: F146N: CED-9 mutant F146N (protein)
chain: T1 sequence (P41958 1-251 limits assumed) with F146N
With B2, the “interaction with CED-4” value in test [4] is recorded as “significantly weakened interactions with CED-4”.

B3: R211E/N212G: CED-9 mutant R211E/N212G (protein)
chain: T1 sequence (P41958 1-251 limits assumed) with R211E, N212G
Consider B3, for which, in test [4], the “interaction with CED-4” value is on record as “significantly weakened interactions with CED-4”.

B4: N158A/A159G/Q160A: CED-9 mutant N158A/A159G/Q160A (protein)
chain: T1 sequence (P41958 1-251 limits assumed) with N158A, A159G, Q160A
Regarding B4, in test [4], the “interaction with CED-4” value was “significantly weakened interactions with CED-4”.

B5: wild-type EGL-1 protein (residues 1-87): wild-type EGL-1 residues 1-87, lacking the four C-terminal hydrophobic residues (protein)
chain: MSNVFDVQSSVFYNEKNMFYSSSQDFSSCEDSSQFADDSGFFDDSEISSIGYEIGSKLAAMCDDFDAQMMSYSAHASDRSLFHRLLD
With B5, in test [2], the “ability” value is listed as “completely displaced CED-4”.
